In patent US7807788 (GlaxoSmithKline, dated 2010):
“And” between values parts separate entries of the source, which are not always exact repeats. Identical values can stand only once. One block for each binder: values may come before it.

Columns and labels:
[1] = molecular target: T1, recombinant E.coli-expressed human IL-4 (human, UniProt P05112 25-153); assay: sandwich ELISA: human IL-4 captured by goat anti-human IL-4 polyclonal, titrated antibody (positive control)
T1 sequence (looked up): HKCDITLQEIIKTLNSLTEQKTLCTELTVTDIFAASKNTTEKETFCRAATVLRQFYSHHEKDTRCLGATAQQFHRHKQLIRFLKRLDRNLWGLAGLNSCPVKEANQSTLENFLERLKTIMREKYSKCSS

[2] = molecular target: T2, recombinant E.coli-expressed cynomolgus IL-13 (cynomolgus, UniProt Q5I6E4 21-132 (Macaca thibetana entry)); assay: cell-based or functional assay
T2 chain: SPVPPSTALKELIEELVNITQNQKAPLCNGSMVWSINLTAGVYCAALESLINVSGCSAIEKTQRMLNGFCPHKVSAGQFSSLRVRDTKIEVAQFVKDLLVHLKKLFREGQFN

[3] = molecular target: T3, recombinant E.coli-expressed human IL-13 (human, UniProt P35225 35-146); assay: sandwich ELISA: E.coli-expressed human IL-13 captured by goat anti-human IL-13 polyclonal, titrated 6A1, anti-mouse IgG-HRP
T3 construct: Untagged E.coli material, bought (Cambridge Bioscience) or made in-house (CA); also called hIL-13; human IL13 (CA)

alanine-scan peptide 63 = molecular target: T4, alanine-scan peptide 63 (human, N-terminal biotin); assay: peptide ELISA: immobilised biotinylated peptide, titrated parental 6A1 (mAb named in legend paragraph 137, not on the sheet)
T4 construct: also called K103A peptide
T4 peptide: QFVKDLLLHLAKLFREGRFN

[4] = molecular target: T5, alanine-scan peptide 1 (parental sequence, no substitution) (human, N-terminal biotin); assay: as above
T5 construct: also called parental peptide
T5 peptide: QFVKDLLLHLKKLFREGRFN

alanine-scan peptide 65 = molecular target: T6, alanine-scan peptide 65 (human, N-terminal biotin); assay: as above
T6 construct: also called L105A peptide
T6 peptide: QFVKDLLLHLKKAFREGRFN

alanine-scan peptide 66 = molecular target: T7, alanine-scan peptide 66 (human, N-terminal biotin); assay: as above
T7 construct: also called F106A peptide
T7 peptide: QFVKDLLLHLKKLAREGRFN

[5] = molecular target: T3, recombinant E.coli-expressed human IL-13; assay: cell-based or functional assay

EC50 (read off the curve) [1]: ~0.03 µg/mL
B1: anti-human IL4 mAb (antibody, V domains shown)
VH: QVQLQQSGPELVKPGASVKISCKASGYSFTSYWIHWIKQRPGQGLEWIGMIDPSDGETRLNQRFQGRATLTVDESTSTAYMQLRSPTSEDSAVYYCTRLKEYGNYDSFYFDVWGAGTLVTVSS
VL: DIQMTQSPASLSVSVGDTITLTCHASQNIDVWLSWFQQKPGNIPKLLIYKASNLHTGVPSRFSGSGSGTGFTLTISSLQPEDIATYYCQQAHSYPFTFGGGTKLEIKR

Mean ND50 for 2 assays, TF-1 bioassay [2]: 0.078 µg/mL
EC50 (read off the curve) [3]: ~0.03 µg/mL
EC50 (read off the curve) (alanine-scan peptide 63): ~0.02 µg/mL
EC50 (read off the curve) [4]: ~0.02 µg/mL and ~0.03 µg/mL
EC50 (read off the curve) (alanine-scan peptide 65): ~0.03 µg/mL
EC50 (read off the curve) (alanine-scan peptide 66): ~0.03 µg/mL
B2: mouse monoclonal antibody 6A1 (antibody, mouse IgG1, V domains shown)
VH: EIQLQQSVAELVRPGASVRLSCTASGFYIKDTYMHWVIQRPEQGLEWIGTIDPANGNTKYVPKFQGKATITADTSSNTAYLRLSSLTSEDTAIYYCARSIYDDYHYDDYYAMDYWGQGTSVTVSS
VL: DVLMTQTPLSLPVSLGDQASISCRSSQNIVHINGNTYLEWYLQKPGQSPKLLIYKISDRFSGVPDRFSGSGSGTDFTLKISRVEAEDLGVYYCFQGSHVPWTFGGGTKLEIK
notes: Murine IgG1/kappa from hybridoma; also called mAb 6A1; 6A1 parental mAb

Mean ND50 for 2 assays, TF-1 bioassay [5]: 0.119 µg/mL
B3: chimaeric 6A1 monoclonal antibody (antibody, human IgG1, V domains shown)
VH: EIQLQQSVAELVRPGASVRLSCTASGFYIKDTYMHWVIQRPEQGLEWIGTIDPANGNTKYVPKFQGKATITADTSSNTAYLRLSSLTSEDTAIYYCARSIYDDYHYDDYYAMDYWGQGTSVTVSS
VL: DVLMTQTPLSLPVSLGDQASISCRSSQNIVHINGNTYLEWYLQKPGQSPKLLIYKISDRFSGVPDRFSGSGSGTDFTLKISRVEAEDLGVYYCFQGSHVPWTFGGGTKLEIK
